The source of these data is doi:10.1101/2023.04.25.538313v1.

By Km is commonly meant the concentration of substrate that gives half-maximal velocity.

Substrate in the data set: O=c1ccn([C@@H]2O[C@H](CO[P@@](=O)(O)O[P@@](=O)(O)O[C@H]3O[C@H](CO)[C@@H](O)[C@H](O)[C@H]3O)[C@@H](O)[C@H]2O)c(=O)[nH]1
The data set is described as follows: purified protein. As to conditions: His-tagged protein in proteoliposomes.

B1: CSLD3 (Arabidopsis thaliana) (protein)
chain: MASNNHFMNSRSNLSTNSDAAEAERHQQPVSNSVTFARRTPSGRYVNYSRDDLDSELGSVDLTGYSVHIPPTPDNQPMDPSISQKVEEQYVSNSLFTGGFNSVTRAHLMEKVIDTETSHPQMAGAKGSSCAVPGCDVKVMSDERGQDLLPCECDFKICRDCFMDAVKTGGMCPGCKEPYRNTDLADFADNNKQQRPMLPPPAGGSKMDRRLSLMKSTKSGLMRSQTGDFDHNRWLFETSGTYGFGNAFWTKDGNFGSDKDGNGHGMGPQDLMSRPWRPLTRKLQIPAAVISPYRLLILIRIVVLALFLMWRIKHKNPDAIWLWGMSVVCELWFALSWLLDQLPKLCPINRATDLNVLKEKFETPTPSNPTGKSDLPGLDMFVSTADPEKEPPLVTSNTILSILAADYPVEKLACYVSDDGGALLTFEAMAEAASFANMWVPFCRKHNIEPRNPDSYFSLKRDPYKNKVKADFVKDRRRVKREYDEFKVRINSLPDSIRRRSDAYHAREEIKAMKLQRQNRDEEIVEPVKIPKATWMADGTHWPGTWINSGPDHSRSDHAGIIQVMLKPPSDEPLHGVSEGFLDLTDVDIRLPLLVYVSREKRPGYDHNKKAGAMNALVRASAIMSNGPFILNLDCDHYIYNSQALREGMCFMMDRGGDRLCYVQFPQRFEGIDPSDRYANHNTVFFDVNMRALDGLMGPVYVGTGCLFRRIALYGFDPPRAKEHHPGFCSCCFSRKKKKSRVPEENRSLRMGGDSDDDEEMNLSLVPKKFGNSTFLIDSIPVAEFQGRPLADHPAVQNGRPPGALTIPRELLDASTVAEAIAVISCWYEDKTEWGSRIGWIYGSVTEDVVTGYRMHNRGWKSVYCVTKRDAFRGTAPINLTDRLHQVLRWATGSVEIFFSRNNAFFASPRMKILQRIAYLNVGIYPFTSFFLIVYCFLPALSLFSGQFIVQTLNVTFLVYLLIISITLCLLALLEIKWSGISLEEWWRNEQFWLIGGTSAHLAAVIQGLLKVVAGIEISFTLTSKSGGEDVDDEFADLYIVKWTSLMIPPITIMMVNLIAIAVGFSRTIYSVIPQWSKLIGGVFFSFWVLAHLYPFAKGLMGRRGRTPTIVYVWSGLVAITISLLWVAINPPAGSTQIGGSFTFP
For B1, the Michaelis constant (Km) worked out at 62 µM.
